{
  "source": "paper PMC3127752",
  "key": {"[1]": {"tested_on": "T1, SO2426 (Shewanella oneidensis MR-1), ORF:71750797", "T1 sequence": "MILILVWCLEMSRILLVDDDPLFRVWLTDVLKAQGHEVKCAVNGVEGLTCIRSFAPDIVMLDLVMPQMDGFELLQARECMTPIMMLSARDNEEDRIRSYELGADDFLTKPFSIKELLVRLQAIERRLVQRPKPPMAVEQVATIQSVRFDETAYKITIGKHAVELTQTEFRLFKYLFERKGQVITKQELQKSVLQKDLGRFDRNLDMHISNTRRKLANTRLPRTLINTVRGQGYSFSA", "assay": "EMSA", "conditions": "DIG-11-dUTP incorporated (dTTP:DIG-dUTP 1:6 mix), 0.5X EMSA buffer [5 mM Tris-Cl pH 8.0, 75 mM KCl, 0.05 mM DTT, 0.05 mM EDTA, 6% glycerol], 5 mM MgCl2, 20 mM acetyl phosphate, 0.2 ug/ul poly(dI:dC)"}, "[2]": {"target": "T2, SO2426sh (Shewanella oneidensis MR-1) (UniProt Q8EEF6)", "T2 sequence": "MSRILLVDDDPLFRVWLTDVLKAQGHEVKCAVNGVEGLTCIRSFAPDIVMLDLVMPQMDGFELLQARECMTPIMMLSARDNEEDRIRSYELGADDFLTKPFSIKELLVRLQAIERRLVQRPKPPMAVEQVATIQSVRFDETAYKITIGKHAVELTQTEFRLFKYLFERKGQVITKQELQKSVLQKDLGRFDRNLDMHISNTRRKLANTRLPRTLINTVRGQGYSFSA", "assay": "EMSA", "conditions": "DIG-11-dUTP incorporated (dTTP:DIG-dUTP 1:6 mix), 0.5X EMSA buffer [5 mM Tris-Cl pH 8.0, 75 mM KCl, 0.05 mM DTT, 0.05 mM EDTA, 6% glycerol], 5 mM MgCl2, 20 mM acetyl phosphate, 0.2 ug/ul poly(dI:dC)"}},
  "data": [
    {"sequence": "TTCGTCGTTGTAGTGAACCTGTAACAGCAAATCAGACGGAAAAATTTCTATTTAGCAACACAATGGAATGACTTACACGGCA (double strand) [so3030 upstream 83-bp probe]", "values": [
      {"measurement": "binding", "setting": "[1]", "value": "binds"},
      {"measurement": "binding", "setting": "[2]", "value": "binds"}
    ]}
  ]
}
